# Results as given in US7517959B2, “SOCS3 proteins” (Walter and Eliza Hall Institute of Medical Research, priority 2005, dated 2009).
# “Also recorded” adds a separate entry of the source.
# B1: SOCS3(22-225): Mouse SOCS3 residues 22-225 containing KIR, extended SH2 domain and SOCS box (protein)
# chain: LKTFSSKSEYQLVVNAVRKLQESGFYWSAVTGGEANLLLSAEPAGTFLIRDSSDQRHFFTLSVKTQSGTKNLRIQCEGGSFSLQSDPRSTQPVPRFDCVLKLVHHYMPPPGTPSFSLPPTEPSSEVPEQPPAQALPGSTPKRAYYIYSGGEKIPLVLSRPLSSNVATLQHLCRKTVNGHLDSYEKVTQLPGPIREFLDQYDAPL
# B2: SOCS3(22-185): Mouse SOCS3 residues 22-185 with KIR and extended SH2 domain, lacking the C-terminal SOCS box (protein)
# chain: LKTFSSKSEYQLVVNAVRKLQESGFYWSAVTGGEANLLLSAEPAGTFLIRDSSDQRHFFTLSVKTQSGTKNLRIQCEGGSFSLQSDPRSTQPVPRFDCVLKLVHHYMPPPGTPSFSLPPTEPSSEVPEQPPAQALPGSTPKRAYYIYSGGEKIPLVLSRPLSSN
# B3: SOCS3(22-185)(Δ129-163): 22-185 construct with Pro129-Arg163 replaced by an eight residue (Gly-Ser)x4 linker; SEQ ID NO:3 (protein, listed as Mus musculus)
# chain: LKTFSSKSEYQLVVNAVRKLQESGFYWSAVTGGEANLLLSAEPAGTFLIRDSSDQRHFFTLSVKTQSGTKNLRIQCEGGSFSLQSDPRSTQPVPRFDCVLKLVHHYMGSGSGSGSAYYIYSGGEKIPLVLSRPLSSN
# B4: ΔPEST SOCS3: Full-length SOCS3 lacking the PEST sequence (Δ129-163), Flag-tagged (protein)
# chain: B3 chain
# Key:
# SOCS3 = SOCS3 (Mus musculus, UniProt O35718); conditions: result in words; cited from earlier work
# Sequence of SOCS3 (O35718 whole entry): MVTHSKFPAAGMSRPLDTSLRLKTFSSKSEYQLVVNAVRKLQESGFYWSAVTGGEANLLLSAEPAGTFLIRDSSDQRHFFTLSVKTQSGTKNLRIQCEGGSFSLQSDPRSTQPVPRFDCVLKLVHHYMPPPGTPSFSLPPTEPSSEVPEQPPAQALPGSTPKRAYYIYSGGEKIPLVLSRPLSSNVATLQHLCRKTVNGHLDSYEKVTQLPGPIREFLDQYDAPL
# [1] = depending on the cell type; cited from earlier work
# [2] = Description: (§1) Pelleted bacterial cells were resuspended in PBS and then lysed by homogenisation. The lysate was centrifuged at 20,000 g and the pelleted inclusion bodies solubilised using 6M GdnHCl. The protein was then purified using Ni-NTA resin (Qiagen) by binding at pH 8.0, washing at pH 6.3 and eluting at pH 4.5, all in 6M GdnHCl. The eluted protein was diluted to 0.1 mg/mL and a final GdnHCl concentration of 4 M and then refolded by extensive dialysis against 25 mM sodium phosphate, 50 mM sodium chloride, 5 mM 2-mercaptoethanol at pH 6.7.
# All constructs contained the SH2 domain, as defined by sequence homology (Okazaki et al., 2002), but included differing lengths of sequence outside this region.
# The six mutants (A50D, G53R, L58E, A62E, A65E, G99D) were all cloned and expressed in E. coli as part of a 22-185 construct.
# 293T cells = assay: Pulse chase half-life experiments in 293T cells; format: cell-based; conditions: for effect of proteasome inhibitor MG132 on half-life: 10 μM MG-132, over eight hours; for labelled protein remaining: after 8 hr; for intracellular stability / turnover: pulse chase, result in words
# Description: FIG. 9. Removing the PEST motif improves the intracellular half-life of SOCS3 and affects its degradation mechanism. • (A) Duplicate pulse chase experiments in 293T cells performed after transfection of (upper panel) wild-type (1-225) or ΔPEST (Δ129-163) SOCS3 DNA and (lower panel) ΔNC-SOCS3 (22-185) or ΔNC-Δ129-163 (22-185 ΔPEST) SOCS3 DNA. The amount of labelled protein remaining is shown as a perceintage of initial levels and plotted as a semi-log graph. […] Duplicate experiments are shown in each panel • (B) Removing the PEST motif alters the intracellular degradation pathway of SOCS3. Pulse chase experiments were performed on 293T cells transfected with wild-type SOCS3 (black) or ΔPEST SOCS3 (grey) and incubated in the presence (hashed bars) and absence (solid bars) of MG-132, a proteasome inhibitor. Experiments were performed in duplicate according to the protocol in (A) but with the addition of 10 μM MG-132 and the protein levels monitored over eight hours.
# 293T cells (5×10^5 cells/well) were transfected with 1.5 μg of the appropriate SOCS3 expression construct as described above. 48 h after transfection cells were washed twice in PBS and incubated for 1 h in Met/Cys-free DME (Gibco-BRL). Cells were then incubated for 30 min in DME containing 0.15 mCi/ml [^35S]Met/Cys (Perkin-Elmer) followed by DME+10% Foetal calf serum (Sigma)+2 mM Cys+2 mM Met for various times, upon which cells were lysed in KALB lysis buffer (1 mM EDTA, 150 mM NaCl, 50 mM Tris-Cl, 1% Triton X-100, pH 7.5) and the amount of [^35S]-labelled SOCS3 was determined by immunoprecipitation using anti-Flag tag M2 beads (Sigma). Detection and quantification was carried out using a FujiFilm FLA-3000 phosphoimager and associated software.
# Intracellular levels of SOCS3 are strongly regulated by proteolysis. Two regions of the protein have been implicated previously in regulating proteolysis, Lys6 in the N-terminal domain and the C-terminal SOCS box (Chen et al., 2002; Kamura et al., 1998; Sasaki et al., 2003). As PEST motifs are known to be signals for protein degradation in vivo (Rogers et al., 1986), we measured the half-life of SOCS3 proteins that lacked the PEST motif, as well as constructs lacking the SOCS box and the N-terminal region. […] As the SOCS box and the N-terminal domains also affect SOCS3 turnover we further examined the effect of deleting these regions. The decrease in SOCS3 degradation upon removing the PEST motif from either the full-length protein (upper panel) or from SOCS322-185 (which lacks both the N-terminal domain and SOCS box, lower panel) was significant.
# As PEST motifs have been associated with proteasome-mediated degradation, we investigated whether proteasome inhibitors would have an effect on the half-life of SOCS3 in 293T cells. […] After 8 hr in the presence of MG132 approximately 65% of ΔPEST SOCS3 remained, compared with ca. 45% in its absence. […] Thus it appears that, in 293T cells, the proteasomal pathway is an important route for ΔPEST SOCS3 degradation but that wild-type SOCS3, which contains the PEST motif, is efficiently degraded via another mechanism.
# [3] = biological target: tyrosine phosphorylated peptide from gp130 (Mus musculus, UniProt Q00560, Q756E); assay: Binding studies and isothermal titration calorimetry (ITC) with gp130 peptide; conditions: for ΔH: FIG. 4 titration, fit to single site binding isotherm
# Description: as §1
# [4] = system: LIF-induced Stat3 activity; assay: Stat3-responsive luciferase assay in 293T cells; format: cell-based; conditions: 100 or 300 ng cDNA, 10 ng/ml LIF overnight
# Description: FIG. 8. […] Backbone amide chemical shift differences between residues in wild-type SOCS3 and ΔPEST SOCS3, which has residues 129-163 replaced by […] (SEQ ID NO:10), are plotted against residue number; amide proton and nitrogen chemical shift differences were averaged according to Δδav, a weighted average of the ^15N and ^1HN chemical shifts as follows: Δδav={0.5[Δδ(^1HN)^2+(0.2Δδ(15N))^2]}^1/2 (Pellecchia et al., 1999). The position of the PEST sequence is marked by a double asterisk. • (B) SOCS3 PEST deletion mutants are able to inhibit STAT activation. 293T cells were transiently transfected with 100 or 300 ng cDNA expressing various Flag-tagged SOCS-3 proteins in the presence of the Stat3-responsive reporter gene. […] Upper panel: Luciferase activity from triplicate samples was determined and normalized against Renilla luciferase activity. Lower panel: Lysates were analysed by Western blot with anti-Flag antibody. […]
# Firefly and Renilla luciferase activities were quantified using substrate reagents from the Luciferase Assay Dual-Reporter kit (Promega, Madison Wis.) and an automated LUMIstar Galaxy plate reader (BMG Technologies, Offenburg, Germany). SOCS3 protein expression was analysed by Western blot with polyclonal rat anti-Flag antibody (Drs. D. Huang & L. O'Reilly, The Walter and Eliza Hall Institute of Medical Research, Melbourne, Australia) as described (Nicholson et al., 1999). […]
Molecule,solubility (in words) [2],effect of proteasome inhibitor MG132 on half-life (293T cells),ΔH [3] [kJ/mol],intracellular stability / turnover (293T cells),further results
STASTVEpYSTVVHSG [phosphotyrosine peptide from gp130],,,,,binding to mouse SOCS3 (SOCS3): bind with high affinity
"wild-type SOCS3: Wild-type (1-225) murine SOCS3, Flag-tagged in the cell assays; SEQ ID NO:1",too low for structure determination,did not affect the half-life; also recorded: no effect on the half-life,,,half-life [1]: under 5 minutes to over 8 hours; labelled protein remaining (293T cells; MG132 state not specified (no effect on wild-type)): 25%
B1,too poorly soluble,,,,solubility in NaCl/Pi [2]: < 1 mg/mL
B2,highest solubility,,-25.9,,soluble to [2]: ≈ 0.5 mM
B3,,,-26.8,improved its in vivo stability,binding to the gp130 peptide ([3]; result in words): binds to the gp130 peptide
B4,,dramatically increased the half-life; also recorded: significantly increased the half-life,,improved its in vivo stability,labelled protein remaining (293T cells; in the absence of MG132): ca. 45%; labelled protein remaining (293T cells; in the presence of MG132 (10 μM)): approximately 65%; ability to inhibit LIF-induced Stat3 activity [4]: did not alter the ability of SOCS3 to inhibit LIF-induced Stat3 activity
